Data as given in US8889621B2, “Inhibiting binding of FGF23 to the binary FGFR-Klotho complex for the treatment of hypophosphatemia” (New York University, priority 2009, dated 2014).
Peptide text beside a SMILES is read from it.

B1: FGF23^180-251: 72-amino acid C-terminal tail of human FGF23 (S180 to I251), expressed in E. coli (protein, listed as Homo sapiens)
chain: SAEDDSERDPLNVLKPRARMTPAPASCSQELPSAEDNSPMASDPLGVVRGGRVNTHAGGTGPEGCRPFAKFI
B2: FGF23^28-251: human FGF23 (A28 to I251), bioactive full-length ligand expressed in E. coli (protein, listed as Homo sapiens)
chain: ASPLLGSSWGGLIHLYTATARNSYHLQIHKNGHVDGAPHQTIYSALMIRSEDAGFVVITGVMSRRYLCMDFRGNIFGSHYFDPENCRFQHQTLENGYDVYHSPQYHFLVSLGRAKRAFLPGMNPPPYSQFLSRRNEIPLIHFNTPIPRRHTRSAEDDSERDPLNVLKPRARMTPAPASCSQELPSAEDNSPMASDPLGVVRGGRVNTHAGGTGPEGCRPFAKFI

Target: T1, binary FGFR1c-Klotho complex (UniProt O35082+P11362)
T1 construct: The ectodomain of murine Klotho (A35 to K982) was purified from culture media; FLAG (C); made in house; host or cells: E. coli (FGFR1c, FGF23); HEK293 (Klotho ectodomain)
T1 sequence (P11362 142-365): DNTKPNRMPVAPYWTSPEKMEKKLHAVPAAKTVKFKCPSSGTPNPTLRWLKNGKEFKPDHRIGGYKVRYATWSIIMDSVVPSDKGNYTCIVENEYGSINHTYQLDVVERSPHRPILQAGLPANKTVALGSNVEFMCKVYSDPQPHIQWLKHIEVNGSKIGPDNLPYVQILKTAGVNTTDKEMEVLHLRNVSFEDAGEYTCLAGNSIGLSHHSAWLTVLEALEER
T1 sequence (O35082 35-982): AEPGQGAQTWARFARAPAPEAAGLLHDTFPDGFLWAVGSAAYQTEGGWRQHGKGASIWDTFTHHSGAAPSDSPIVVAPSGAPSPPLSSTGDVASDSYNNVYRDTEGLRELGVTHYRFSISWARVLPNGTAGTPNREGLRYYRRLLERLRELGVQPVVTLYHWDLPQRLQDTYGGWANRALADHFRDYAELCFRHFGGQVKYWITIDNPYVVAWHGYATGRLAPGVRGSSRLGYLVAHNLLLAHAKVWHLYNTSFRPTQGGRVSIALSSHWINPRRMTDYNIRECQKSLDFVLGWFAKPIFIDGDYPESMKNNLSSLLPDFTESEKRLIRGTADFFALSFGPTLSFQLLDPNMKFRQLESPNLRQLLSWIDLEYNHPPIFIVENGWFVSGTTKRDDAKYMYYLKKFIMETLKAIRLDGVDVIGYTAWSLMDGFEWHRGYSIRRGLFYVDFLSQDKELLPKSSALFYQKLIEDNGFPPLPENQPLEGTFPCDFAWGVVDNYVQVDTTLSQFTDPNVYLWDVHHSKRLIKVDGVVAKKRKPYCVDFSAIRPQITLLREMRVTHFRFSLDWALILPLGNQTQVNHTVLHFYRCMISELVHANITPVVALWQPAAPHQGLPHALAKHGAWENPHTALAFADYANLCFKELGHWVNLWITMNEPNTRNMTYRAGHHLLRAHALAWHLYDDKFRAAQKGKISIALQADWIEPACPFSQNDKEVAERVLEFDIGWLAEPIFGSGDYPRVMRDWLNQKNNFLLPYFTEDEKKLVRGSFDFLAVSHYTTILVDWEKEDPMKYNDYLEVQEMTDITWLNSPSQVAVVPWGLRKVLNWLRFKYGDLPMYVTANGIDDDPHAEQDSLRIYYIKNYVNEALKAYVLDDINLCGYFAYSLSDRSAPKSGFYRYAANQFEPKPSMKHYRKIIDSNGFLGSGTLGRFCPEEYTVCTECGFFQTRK
Assay: SPR competition: FGFR1c-Klotho binding to immobilized FGF23^28-251
Parameters: species or system human FGFR1c, murine Klotho
Conditions: for inhibition of FGFR1c-Klotho binding to immobilized FGF23^28-251: FGF21^168-209 at molar ratios of 6:1 and 10:1; for rightward shift of dose-response curve compared to full-length FGF23: FIG. 3D
Method: A variety of interaction or binding assays can be used to determine that an agent specifically binds the binary FGFR-Klotho complex, such as the SPR interaction analysis described below. One aspect of the present invention utilizes SPR analysis of FGF23 protein/peptide binding to the binary FGFR-Klotho complex. The SPR analysis involved FGF23 protein/peptide immobilization by amine coupling on flow channels of a chip. Proteins were injected over the chip at a flow rate of 50 μl min^−1, and at the end of each protein injection (180 s), HBS-EP buffer (10 mM HEPES-NaOH, pH 7.4, 150 mM NaCl, 3 mM EDTA, 0.005% (v/v) polysorbate 20; 50 μl min^−1) was flowed over the chip to monitor dissociation for 180 s. The chip surface was then regenerated by injecting 50 μl of 2.0 M NaCl in 10 mM sodium acetate, pH 4.5. […] For each protein injection over a FGF23 protein/peptide chip, the nonspecific responses from the FHF1B control flow channel were subtracted from the responses recorded for the flow channel onto which FGF23 protein/peptide was immobilized. To analyze FGF23 binding to the binary FGFR1c-Klotho complex, FGF23^28-251 was coupled to a chip, and increasing concentrations of 1:1 complex of the ectodomains of FGFR1c and Klotho in HBS-EP buffer were passed over the chip. To measure binding of the C-terminal tail of FGF23 to the binary FGFR1c-Klotho complex, FGF23^180-251 was immobilized on a chip, and increasing concentrations of 1:1 complex of the ectodomains of FGFR1c and Klotho in HBS-EP buffer were passed over the chip. To examine whether the C-terminal tail of FGF23 can compete with full-length FGF23 for binding to the binary FGFR1c-Klotho complex, FGF23^28-251 was immobilized on a chip. Increasing concentrations of FGF23^180-251 were mixed with a fixed concentration of 1:1 complex of the ectodomains of FGFR1c and Klotho in HBS-EP buffer, and the mixtures were passed over the chip. As a control, competition of FGF23 in solution with immobilized FGF23 for binding to the binary FGFR1c-Klotho complex was studied. Increasing concentrations of FGF23^28-251 were mixed with a fixed concentration of 1:1 complex of the ectodomains of FGFR1c and Klotho in HBS-EP buffer, and the mixtures were passed over the FGF23 chip. Competition of the FGF23 C-terminal tail peptide with full-length FGF23 for binding to the binary FGFR1c-Klotho complex was also studied using the “reverse” SPR assay format, where FGF23^180-251 was immobilized on a chip and mixtures of a fixed concentration of 1:1 complex of the ectodomains of FGFR1c and Klotho with increasing concentrations of FGF23^28-251 were passed over the chip. As a control, competition of FGF23 C-terminal tail peptide in solution with immobilized FGF23 C-terminal tail peptide for binding to the binary FGFR1c-Klotho complex was analyzed. Increasing concentrations of FGF23^180-251 were mixed with a fixed concentration of 1:1 complex of the ectodomains of FGFR1c and Klotho in HBS-EP buffer, and the mixtures were passed over the FGF23^180-251 chip. To verify the specificity of the interaction between the FGF23 C-terminal tail and the FGFR1c-Klotho complex, FGF23^28-251 was immobilized on a chip. Increasing concentrations of FGF21^168-209 were mixed with a fixed concentration of 1:1 complex of the ectodomains of FGFR1c and Klotho in HBS-EP buffer, and the mixtures were passed over the chip. In addition, the ability of the FGF23 C-terminal tail peptide to interfere with binary complex formation between βKlotho and either FGF19 or FGF21 was tested, as was its ability to interfere with ternary complex formation between βKlotho, FGFR, and either FGF19 or FGF21. FGF19^23-216 and FGF21^29-209 were immobilized on two flow channels of a chip. FGF23^180-251 and the ectodomain of βKlotho were mixed at a molar ratio of 2:1, and the mixture was injected over the chip. Next, FGF23^180-251 and the 1:1 complex of the ectodomains of FGFR1c and βKlotho were mixed at a molar ratio of 10:1, and the mixture was passed over the FGF19/FGF21 chip. […]

| Molecule | inhibition of FGFR1c-Klotho binding to immobilized FGF23^28-251 | molar excess over FGFR1c-Klotho complex at half-maximum inhibition of FGFR1c-Klotho binding to FGF23^28-251 (FGF23^28-251 chip) [fold molar excess] | rightward shift of dose-response curve compared to full-length FGF23 | amount relative to FGFR1c-Klotho complex yielding 50% inhibition of binding to immobilized FGF23^28-251 (FGF23^28-251 chip, control) |
| --- | --- | --- | --- | --- |
| CSCC[C@H](NC(=O)[C@H](CCCNC(=N)N)NC(=O)[C@H](C)NC(=O)[C@H](CCCNC(=N)N)NC(=O)[C@@H]1CCCN1C(=O)[C@H](CCCCN)NC(=O)[C@H](CC(C)C)NC(=O)[C@@H](NC(=O)[C@H](CC(N)=O)NC(=O)[C@H](CC(C)C)NC(=O)[C@@H]1CCCN1C(=O)[C@H](CC(=O)O)NC(=O)[C@H](CCCNC(=N)N)NC(=O)[C@H](CCC(=O)O)NC(=O)[C@H](CO)NC(=O)[C@H](CC(=O)O)NC(=O)[C@H](CC(=O)O)NC(=O)[C@H](CCC(=O)O)NC(=O)[C@H](C)NC(=O)[C@@H](N)CO)C(C)C)C(=O)N[C@H](C(=O)N1CCC[C@H]1C(=O)N[C@@H](C)C(=O)N1CCC[C@H]1C(=O)N[C@@H](C)C(=O)N[C@@H](CO)C(=O)O)[C@@H](C)O [FGF23^180-205] (H-SAEDDSERDPLNVLKPRARMTPAPAS-OH; N-terminus and C-terminus assumed) | able to compete, in a dose-dependent fashion | 5.7 | ~6 fold | – |
| B1 | competed, in a dose-dependent fashion | 3.3 | about 3 fold | – |
| B2 | – | – | – | less than an equimolar amount |
